Source: publication PMC5201011 (2016)

B1: GST–Tks5-PX [not stated] / FLAG–Rab40b [not stated] (parent complex)
chain 1: YCVQDATVVDVEKRRNPSKHYVYIINVTWSDSTSQTIYRRYSKFFDLQMQLLDKFPIEGGQKDPKQRIIPFLPGKILFRRSHIRDVAVKRLKPIDEYCRALVRLPPHISQCDEVFRFFEARPEDV
chain 2: MSALGSPVRAYDFLLKFLLVGDSDVGKGEILASLQDGAAESPYGHPAGIDYKTTTILLDGRRVKLQLWDTSGQGRFCTIFRSYSRGAQGVILVYDIANRWSFDGIDRWIKEIDEHAPGVPKILVGNRLHLAFKRQVPTEQAQAYAERLGVTFFEVSPLCNFNITESFTELARIVLLRHGMDRLWRPSKVLSLQDLCCRAVVSCTPVHLVDKLPLPIALRSHLKSFSMANGLNARMMHGGSYSLTTSSTHKRSSLRKVKLVRPPQSPPKNCTRNSCKIS

Variants of: B1
Experiment: glutathione bead pulldown, quantified immunoblot; three independent experiments; parent: 1; read off a plot

response | Variant
~0.57 Arbitrary Units | chain 1 Y21A
~0.86 Arbitrary Units | chain 1 I24A
